Results published in publication PMC5177931.

Target: T1, Myc-tagged PDC E1, P08559
T1 chain: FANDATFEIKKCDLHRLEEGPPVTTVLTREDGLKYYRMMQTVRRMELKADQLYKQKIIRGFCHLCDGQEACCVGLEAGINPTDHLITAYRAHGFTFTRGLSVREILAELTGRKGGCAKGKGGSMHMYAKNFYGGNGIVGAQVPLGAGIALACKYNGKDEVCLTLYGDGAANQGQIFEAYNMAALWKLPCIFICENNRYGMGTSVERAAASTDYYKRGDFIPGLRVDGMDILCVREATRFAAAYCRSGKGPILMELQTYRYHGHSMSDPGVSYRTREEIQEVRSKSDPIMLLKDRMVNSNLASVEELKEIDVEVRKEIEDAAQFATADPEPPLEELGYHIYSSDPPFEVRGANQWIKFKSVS
Assay: co-immunoprecipitation (anti-Myc IP, western blot for Flag-STAT3), band intensity printed under lanes
Details: chain shown with the change; 293T cells, transient transfection; printed intensities relative to EV lane = 1; parent: 9.5

B1: Flag-STAT3 WT, P40763 K685R; K707R; K709R (protein)
chain: MAQWNQLQQLDTRYLEQLHQLYSDSFPMELRQFLAPWIESQDWAYAASKESHATLVFHNLLGEIDQQYSRFLQESNVLYQHNLRRIKQFLQSRYLEKPMEIARIVARCLWEESRLLQTAATAAQQGGQANHPTAAVVTEKQQMLEQHLQDVRKRVQDLEQKMKVVENLQDDFDFNYKTLKSQGDMQDLNGNNQSVTRQKMQQLEQMLTALDQMRRSIVSELAGLLSAMEYVQKTLTDEELADWKRRQQIACIGGPPNICLDRLENWITSLAESQLQTRQQIKKLEELQQKVSYKGDPIVQHRPMLEERIVELFRNLMKSAFVVERQPCMPMHPDRPLVIKTGVQFTTKVRLLVKFPELNYQLKIKVCIDKDSGDVAALRGSRKFNILGTNTKVMNMEESNNGSLSAEFKHLTLREQRCGNGGRANCDASLIVTEELHLITFETEVYHQGLKIDLETHSLPVVVISNICQMPNAWASILWYNMLTNNPKNVNFFTKPPIGTWDQVAEVLSWQFSSTTKRGLSIEQLTTLAEKLLGPGVNYSGCQITWAKFCKENMAGKGFSFWVWLDNIIDLVKKYILALWNEGYIMGFISKERERAILSTKPPGTFLLRFSESSKEGGVTFTWVEKDISGKTQIQSVEPYTKQQLNNMSFAEIIMGYKIMDATNILVSPLVYLYPDIPKEEAFGRYCRPESQEHPEADPGSAAPYLRTRFICVTPTTCSNTIDLPMSPRTLDSLMQFGNNGEGAEPSAGGQFESLTFDMELTSECATSPM
response: 2.4
